Measurements published in publication PMC3265891 (The Journal of Biological Chemistry, 2011).

Biological target: the molecule itself
Assay: SEC

Protein | stoichiometry N
human UDP-glucose 6-dehydrogenase E161Q mutant (C-terminally truncated) (enzyme, UniProt O60701 1-467, looked up) MFEIKKICCIGAGYVGGPTCSVIAHMCPEIRVTVVDVNESRINAWNSPTLPIYEPGLKEVVESCRGKNLFFSTNIDDAIKEADLVFISVNTPTKTYGMGKGRAADLKYIEACARRIVQNSNGYKIVTEKSTVPVRAAESIRRIFDANTKPNLNLQVLSNPQFLAEGTAIKDLKNPDRVLIGGDETPEGQRAVQALCAVYEHWVPREKILTTNTWSSELSKLAANAFLAQRISSINSISALCEATGADVEEVATAIGMDQRIGNKFLKASVGFGGSCFQKDVLNLVYLCEALNLPEVARYWQQVIDMNDYQRRRFASRIIDSLFNTVTDKKIAILGFAFKKDTGDTRESSSIYISKYLMDEGAHLHIYDPKVPREQIVVDLSHPGVSEDDQVSRLVTISKDPYEACDGAHAVVICTEWDMFKELDYERIHKKMLKPAFIFDGRRVLDGLHNELQTIGFQIETIGKKVS | 6
human UDP-glucose 6-dehydrogenase D280A mutant (C-terminally truncated) (enzyme, UniProt O60701 1-467, looked up) MFEIKKICCIGAGYVGGPTCSVIAHMCPEIRVTVVDVNESRINAWNSPTLPIYEPGLKEVVESCRGKNLFFSTNIDDAIKEADLVFISVNTPTKTYGMGKGRAADLKYIEACARRIVQNSNGYKIVTEKSTVPVRAAESIRRIFDANTKPNLNLQVLSNPEFLAEGTAIKDLKNPDRVLIGGDETPEGQRAVQALCAVYEHWVPREKILTTNTWSSELSKLAANAFLAQRISSINSISALCEATGADVEEVATAIGMDQRIGNKFLKASVGFGGSCFQKAVLNLVYLCEALNLPEVARYWQQVIDMNDYQRRRFASRIIDSLFNTVTDKKIAILGFAFKKDTGDTRESSSIYISKYLMDEGAHLHIYDPKVPREQIVVDLSHPGVSEDDQVSRLVTISKDPYEACDGAHAVVICTEWDMFKELDYERIHKKMLKPAFIFDGRRVLDGLHNELQTIGFQIETIGKKVS | 6
human UDP-glucose 6-dehydrogenase N224A mutant (C-terminally truncated) (enzyme, UniProt O60701 1-467, looked up) MFEIKKICCIGAGYVGGPTCSVIAHMCPEIRVTVVDVNESRINAWNSPTLPIYEPGLKEVVESCRGKNLFFSTNIDDAIKEADLVFISVNTPTKTYGMGKGRAADLKYIEACARRIVQNSNGYKIVTEKSTVPVRAAESIRRIFDANTKPNLNLQVLSNPEFLAEGTAIKDLKNPDRVLIGGDETPEGQRAVQALCAVYEHWVPREKILTTNTWSSELSKLAAAAFLAQRISSINSISALCEATGADVEEVATAIGMDQRIGNKFLKASVGFGGSCFQKDVLNLVYLCEALNLPEVARYWQQVIDMNDYQRRRFASRIIDSLFNTVTDKKIAILGFAFKKDTGDTRESSSIYISKYLMDEGAHLHIYDPKVPREQIVVDLSHPGVSEDDQVSRLVTISKDPYEACDGAHAVVICTEWDMFKELDYERIHKKMLKPAFIFDGRRVLDGLHNELQTIGFQIETIGKKVS | 6
human UDP-glucose 6-dehydrogenase T131S mutant (C-terminally truncated) (enzyme, UniProt O60701 1-467, looked up) MFEIKKICCIGAGYVGGPTCSVIAHMCPEIRVTVVDVNESRINAWNSPTLPIYEPGLKEVVESCRGKNLFFSTNIDDAIKEADLVFISVNTPTKTYGMGKGRAADLKYIEACARRIVQNSNGYKIVTEKSSVPVRAAESIRRIFDANTKPNLNLQVLSNPEFLAEGTAIKDLKNPDRVLIGGDETPEGQRAVQALCAVYEHWVPREKILTTNTWSSELSKLAANAFLAQRISSINSISALCEATGADVEEVATAIGMDQRIGNKFLKASVGFGGSCFQKDVLNLVYLCEALNLPEVARYWQQVIDMNDYQRRRFASRIIDSLFNTVTDKKIAILGFAFKKDTGDTRESSSIYISKYLMDEGAHLHIYDPKVPREQIVVDLSHPGVSEDDQVSRLVTISKDPYEACDGAHAVVICTEWDMFKELDYERIHKKMLKPAFIFDGRRVLDGLHNELQTIGFQIETIGKKVS | 6
human UDP-glucose 6-dehydrogenase K220A mutant (C-terminally truncated) (enzyme, UniProt O60701 1-467, looked up) MFEIKKICCIGAGYVGGPTCSVIAHMCPEIRVTVVDVNESRINAWNSPTLPIYEPGLKEVVESCRGKNLFFSTNIDDAIKEADLVFISVNTPTKTYGMGKGRAADLKYIEACARRIVQNSNGYKIVTEKSTVPVRAAESIRRIFDANTKPNLNLQVLSNPEFLAEGTAIKDLKNPDRVLIGGDETPEGQRAVQALCAVYEHWVPREKILTTNTWSSELSALAANAFLAQRISSINSISALCEATGADVEEVATAIGMDQRIGNKFLKASVGFGGSCFQKDVLNLVYLCEALNLPEVARYWQQVIDMNDYQRRRFASRIIDSLFNTVTDKKIAILGFAFKKDTGDTRESSSIYISKYLMDEGAHLHIYDPKVPREQIVVDLSHPGVSEDDQVSRLVTISKDPYEACDGAHAVVICTEWDMFKELDYERIHKKMLKPAFIFDGRRVLDGLHNELQTIGFQIETIGKKVS | 6

Biological target: the molecule itself
Assay: crystal structure

Protein | binding result
human UDP-glucose 6-dehydrogenase E161Q mutant (thiohemiacetal intermediate) (enzyme, UniProt O60701 1-467, looked up, Cys276 covalently modified: Sγ bonded to C6 of the UDP-Glc-derived substrate (thiohemiacetal)) MFEIKKICCIGAGYVGGPTCSVIAHMCPEIRVTVVDVNESRINAWNSPTLPIYEPGLKEVVESCRGKNLFFSTNIDDAIKEADLVFISVNTPTKTYGMGKGRAADLKYIEACARRIVQNSNGYKIVTEKSTVPVRAAESIRRIFDANTKPNLNLQVLSNPQFLAEGTAIKDLKNPDRVLIGGDETPEGQRAVQALCAVYEHWVPREKILTTNTWSSELSKLAANAFLAQRISSINSISALCEATGADVEEVATAIGMDQRIGNKFLKASVGFGGSCFQKDVLNLVYLCEALNLPEVARYWQQVIDMNDYQRRRFASRIIDSLFNTVTDKKIAILGFAFKKDTGDTRESSSIYISKYLMDEGAHLHIYDPKVPREQIVVDLSHPGVSEDDQVSRLVTISKDPYEACDGAHAVVICTEWDMFKELDYERIHKKMLKPAFIFDGRRVLDGLHNELQTIGFQIETIGKKVS | binds
